Changes are numbered by the printed parent chain.
T1: human TGFβ2 (human, UniProt P61812 303-414)
T1 construct: also called TGFβ2 homodimer
T1 sequence: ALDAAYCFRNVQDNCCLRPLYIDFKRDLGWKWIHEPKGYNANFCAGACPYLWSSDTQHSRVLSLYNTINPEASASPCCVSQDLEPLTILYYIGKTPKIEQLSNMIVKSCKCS

T2: human TGFβ3 (human, UniProt P10600 301-412)
T2 sequence: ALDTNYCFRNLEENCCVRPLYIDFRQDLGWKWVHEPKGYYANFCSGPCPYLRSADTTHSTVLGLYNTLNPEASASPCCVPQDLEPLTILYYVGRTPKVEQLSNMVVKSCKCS

B1: Y27L (antibody, V domains shown)
VH: QVQLVQSGAEVKKPGSSVKVSCKASGLTFSSNVISWVRQAPGQGLEWMGGVIPIVDIANYAQRFKGRVTITADESTSTTYMELSSLRSEDTAVYYCASTLGLVLDAMDYWGQGTLVTVSS
VL: ETVLTQSPGTLSLSPGERATLSCRASQSLGSSYLAWYQQKPGQAPRLLIYGASSRAPGIPDRFSGSGSGTDFTLTISRLEPEDFAVYYCQQYADSPITFGQGTRLEIK
notes: GC1008 IgG4 variant
B2: Y27M (antibody, V domains shown)
VH: B1 VH with L27M
VL: B1 VL
notes: GC1008 IgG4 variant
B3: Y27Q (antibody, V domains shown)
VH: B1 VH with L27Q
VL: B1 VL
notes: GC1008 IgG4 variant
B4: Y27T (antibody, V domains shown)
VH: B1 VH with L27T
VL: B1 VL
notes: GC1008 IgG4 variant
B5: Y27V (antibody, V domains shown)
VH: B1 VH with L27V
VL: B1 VL
notes: GC1008 IgG4 variant
B6: Y27W (antibody, V domains shown)
VH: B1 VH with L27W
VL: B1 VL
notes: GC1008 IgG4 variant
B7: Y27R (antibody, V domains shown)
VH: B1 VH with L27R
VL: B1 VL
notes: GC1008 IgG4 variant
B8: Y27S (antibody, V domains shown)
VH: B1 VH with L27S
VL: B1 VL
notes: GC1008 IgG4 variant
B9: Y27N (antibody, V domains shown)
VH: B1 VH with L27N
VL: B1 VL
notes: GC1008 IgG4 variant
B10: Y27P (antibody, V domains shown)
VH: B1 VH with L27P
VL: B1 VL
notes: GC1008 IgG4 variant

target: T1, human TGFβ2; assay: Biacore off-rate vs wt GC1008, 50 nM
In short: (§1)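 Surface plasmon resonance on a Biacore 3000 measured how fast purified antibody variants dissociated from TGFβ isoforms immobilized at about 100 RU. Variants carried single heavy- or light-chain substitutions and were produced by transient Expi293F transfection with Protein A cleanup. Samples at 50 nM were tested in duplicate, and each variant kd was divided by the wild-type control kd to give fold change.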

| kd var/kd wt | Binder |
| --- | --- |
| 1.4 | B1 |
| 1.4 | B2 |
| 1.4 | B3 |
| 1.4 | B4 |
| 1.6 | B5 |
| 1.3 | B6 |
| 1.5 | B7 |
| 1.5 | B8 |
| 1.3 | B9 |
| 1.4 | B10 |

target: T3, human TGFβ1 (human, UniProt P01137 279-390); assay: Biacore off-rate vs wt GC1008, 50 nM
T3 construct: also called TGFβ1 homodimer
T3 sequence (P01137 279-390 limits assumed): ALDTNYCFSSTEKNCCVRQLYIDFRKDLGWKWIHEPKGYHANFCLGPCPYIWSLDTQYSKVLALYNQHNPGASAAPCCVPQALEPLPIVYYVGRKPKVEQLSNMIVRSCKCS
In short: as §1

| kd var/kd wt | Binder |
| --- | --- |
| 1.4 | B1 |
| 1.3 | B2 |
| 1.5 | B3 |
| 1.4 | B4 |
| 1.7 | B5 |
| 1.4 | B6 |
| 2.3 | B7 |
| 1.6 | B8 |
| 1.3 | B9 |
| 1.7 | B10 |

target: T2, human TGFβ3; assay: Biacore off-rate vs wt GC1008, 50 nM
In short: as §1

| kd var/kd wt | Binder |
| --- | --- |
| 1.1 | B1 |
| 1.3 | B2 |
| 1.4 | B3 |
| 1.5 | B4 |
| 1.5 | B5 |
| 1.4 | B6 |
| 1.7 | B7 |
| 1.6 | B8 |
| 1.3 | B9 |
| 1.4 | B10 |

Reference: patent US20170342144A1 (Sanofi, published 2017)
